Assay results published in US20190134153A1, “IMMUNOMODULATORY EFFECT OF INHALED KINASE INHIBITOR PEPTIDES IN LUNG” (MOERAE MATRIX, INC., priority 2017, published 2019).

What was measured:
Assay in all cases: Kinase Profiling Assay
Type in all cases: biochemical
Details in all cases: 100 μM
CHK2(I157T)(h) = CHK2(I157T)(h) (Homo sapiens, UniProt O96017, I157T)
eEF-2K(h) = eEF-2K(h) (Homo sapiens, UniProt O00418)
PhKγ2(h) = target: T1, PhKγ2(h) (Homo sapiens, UniProt P15735)
T1 sequence (P15735 1-406): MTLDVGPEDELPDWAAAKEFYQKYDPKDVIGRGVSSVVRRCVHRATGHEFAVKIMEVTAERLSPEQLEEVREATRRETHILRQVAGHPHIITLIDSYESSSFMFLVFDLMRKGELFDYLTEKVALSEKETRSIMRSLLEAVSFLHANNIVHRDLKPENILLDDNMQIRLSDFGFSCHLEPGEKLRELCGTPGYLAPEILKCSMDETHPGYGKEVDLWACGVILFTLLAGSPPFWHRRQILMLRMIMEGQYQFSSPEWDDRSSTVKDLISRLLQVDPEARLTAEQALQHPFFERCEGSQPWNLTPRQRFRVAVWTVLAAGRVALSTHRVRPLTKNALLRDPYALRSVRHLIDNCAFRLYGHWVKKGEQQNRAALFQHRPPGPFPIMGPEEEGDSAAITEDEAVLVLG

IKKα(h) = target: T2, IKKα(h) (Homo sapiens, UniProt O15111)
T2 sequence (O15111 1-745): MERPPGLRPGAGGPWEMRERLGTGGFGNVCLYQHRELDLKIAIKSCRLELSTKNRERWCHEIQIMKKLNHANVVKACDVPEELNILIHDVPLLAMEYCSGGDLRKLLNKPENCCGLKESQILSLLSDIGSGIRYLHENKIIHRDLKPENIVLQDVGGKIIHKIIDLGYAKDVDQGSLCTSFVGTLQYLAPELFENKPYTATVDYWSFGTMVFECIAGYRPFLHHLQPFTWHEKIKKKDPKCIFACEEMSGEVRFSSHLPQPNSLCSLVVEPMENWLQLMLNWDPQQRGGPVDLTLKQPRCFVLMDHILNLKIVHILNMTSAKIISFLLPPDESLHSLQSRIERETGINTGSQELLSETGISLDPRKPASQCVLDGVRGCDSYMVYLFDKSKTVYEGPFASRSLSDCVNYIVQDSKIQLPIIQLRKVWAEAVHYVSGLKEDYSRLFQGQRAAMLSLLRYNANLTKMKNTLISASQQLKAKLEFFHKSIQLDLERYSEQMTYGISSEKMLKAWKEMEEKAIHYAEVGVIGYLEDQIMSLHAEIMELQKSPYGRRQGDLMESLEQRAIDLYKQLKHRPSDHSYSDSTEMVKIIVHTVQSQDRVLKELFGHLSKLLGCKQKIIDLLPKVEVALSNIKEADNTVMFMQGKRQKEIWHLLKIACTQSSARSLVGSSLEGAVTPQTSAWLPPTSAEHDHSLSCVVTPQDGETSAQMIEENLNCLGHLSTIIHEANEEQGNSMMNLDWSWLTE

ULK3(h) = target: T3, ULK3(h) (Homo sapiens, UniProt Q6PHR2)
T3 sequence (Q6PHR2 1-472): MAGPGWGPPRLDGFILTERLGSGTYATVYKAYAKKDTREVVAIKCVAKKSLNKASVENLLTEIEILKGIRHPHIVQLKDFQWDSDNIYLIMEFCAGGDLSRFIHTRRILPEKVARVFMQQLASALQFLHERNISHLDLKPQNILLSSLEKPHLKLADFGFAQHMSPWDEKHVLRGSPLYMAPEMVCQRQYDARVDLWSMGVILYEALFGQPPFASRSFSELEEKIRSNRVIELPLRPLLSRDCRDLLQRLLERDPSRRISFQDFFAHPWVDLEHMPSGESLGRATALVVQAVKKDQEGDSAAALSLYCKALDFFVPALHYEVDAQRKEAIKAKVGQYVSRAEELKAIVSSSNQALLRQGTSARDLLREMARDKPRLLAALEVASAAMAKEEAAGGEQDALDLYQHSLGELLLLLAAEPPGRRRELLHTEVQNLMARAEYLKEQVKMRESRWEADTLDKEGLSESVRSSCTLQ

Pim-1(h) = Pim-1(h) (Homo sapiens, UniProt P11309)
DRAK1(h) = target: T4, DRAK1(h) (Homo sapiens, UniProt Q9UEE5)
T4 sequence (Q9UEE5 1-414): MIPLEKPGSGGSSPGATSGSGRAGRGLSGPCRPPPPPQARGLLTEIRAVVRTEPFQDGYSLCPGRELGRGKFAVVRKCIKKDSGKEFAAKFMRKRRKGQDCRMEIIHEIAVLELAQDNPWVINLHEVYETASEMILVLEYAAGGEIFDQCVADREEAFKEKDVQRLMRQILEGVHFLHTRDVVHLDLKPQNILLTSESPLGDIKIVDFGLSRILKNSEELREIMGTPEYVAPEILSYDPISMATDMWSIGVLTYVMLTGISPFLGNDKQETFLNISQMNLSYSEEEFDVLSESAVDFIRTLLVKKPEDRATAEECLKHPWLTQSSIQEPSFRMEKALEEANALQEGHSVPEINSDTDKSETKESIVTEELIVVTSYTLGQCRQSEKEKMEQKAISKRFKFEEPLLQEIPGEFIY

Met(D1246H)(h) = Met(D1246H)(h) (Homo sapiens, UniProt P08581, D1228H)
PDGFRα(V561D)(h) = PDGFRα(V561D)(h) (Homo sapiens, UniProt P16234, V561D)
GSK3α(h) = GSK3α(h) (Homo sapiens, UniProt P49840)
GSK3α(h), sequence (P49840 whole entry): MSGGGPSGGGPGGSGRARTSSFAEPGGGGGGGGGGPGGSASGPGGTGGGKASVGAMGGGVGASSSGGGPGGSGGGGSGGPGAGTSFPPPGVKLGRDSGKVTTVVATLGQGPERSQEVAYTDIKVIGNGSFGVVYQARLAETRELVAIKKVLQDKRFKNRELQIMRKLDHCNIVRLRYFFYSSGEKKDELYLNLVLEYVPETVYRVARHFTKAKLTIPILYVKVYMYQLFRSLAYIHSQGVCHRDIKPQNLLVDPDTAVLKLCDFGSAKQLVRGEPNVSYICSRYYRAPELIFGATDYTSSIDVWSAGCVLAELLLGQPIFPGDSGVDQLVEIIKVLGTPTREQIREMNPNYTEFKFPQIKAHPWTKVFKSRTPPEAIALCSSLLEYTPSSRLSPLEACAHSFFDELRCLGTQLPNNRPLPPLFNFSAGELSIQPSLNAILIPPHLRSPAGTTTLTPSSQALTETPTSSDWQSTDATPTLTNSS

CHK2(I157T)(h), sequence (O96017 whole entry I157T): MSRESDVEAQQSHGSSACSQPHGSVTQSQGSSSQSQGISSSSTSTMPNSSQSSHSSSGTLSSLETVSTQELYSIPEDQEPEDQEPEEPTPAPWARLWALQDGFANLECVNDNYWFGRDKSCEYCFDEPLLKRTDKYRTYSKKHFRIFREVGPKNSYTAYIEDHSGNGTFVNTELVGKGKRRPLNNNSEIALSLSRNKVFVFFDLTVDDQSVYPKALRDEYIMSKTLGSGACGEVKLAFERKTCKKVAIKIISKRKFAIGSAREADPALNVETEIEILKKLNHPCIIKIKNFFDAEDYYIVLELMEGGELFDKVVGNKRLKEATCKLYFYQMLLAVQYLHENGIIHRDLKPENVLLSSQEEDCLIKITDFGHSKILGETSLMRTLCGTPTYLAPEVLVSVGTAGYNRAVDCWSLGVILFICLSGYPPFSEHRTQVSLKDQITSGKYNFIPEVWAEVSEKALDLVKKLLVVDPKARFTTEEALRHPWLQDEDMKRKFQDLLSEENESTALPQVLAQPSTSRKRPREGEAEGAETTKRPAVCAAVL
Pim-1(h), sequence (P11309 whole entry): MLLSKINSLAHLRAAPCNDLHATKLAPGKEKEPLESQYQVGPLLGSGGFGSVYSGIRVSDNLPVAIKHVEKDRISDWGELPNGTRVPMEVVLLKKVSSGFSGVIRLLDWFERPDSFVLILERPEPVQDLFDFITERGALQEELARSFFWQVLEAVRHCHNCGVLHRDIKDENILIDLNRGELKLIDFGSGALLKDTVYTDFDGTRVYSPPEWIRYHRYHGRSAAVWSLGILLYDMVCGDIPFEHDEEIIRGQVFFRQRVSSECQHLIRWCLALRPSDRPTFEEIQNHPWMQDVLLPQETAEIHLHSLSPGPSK
PDGFRα(V561D)(h), sequence (P16234 24-1089 V561D): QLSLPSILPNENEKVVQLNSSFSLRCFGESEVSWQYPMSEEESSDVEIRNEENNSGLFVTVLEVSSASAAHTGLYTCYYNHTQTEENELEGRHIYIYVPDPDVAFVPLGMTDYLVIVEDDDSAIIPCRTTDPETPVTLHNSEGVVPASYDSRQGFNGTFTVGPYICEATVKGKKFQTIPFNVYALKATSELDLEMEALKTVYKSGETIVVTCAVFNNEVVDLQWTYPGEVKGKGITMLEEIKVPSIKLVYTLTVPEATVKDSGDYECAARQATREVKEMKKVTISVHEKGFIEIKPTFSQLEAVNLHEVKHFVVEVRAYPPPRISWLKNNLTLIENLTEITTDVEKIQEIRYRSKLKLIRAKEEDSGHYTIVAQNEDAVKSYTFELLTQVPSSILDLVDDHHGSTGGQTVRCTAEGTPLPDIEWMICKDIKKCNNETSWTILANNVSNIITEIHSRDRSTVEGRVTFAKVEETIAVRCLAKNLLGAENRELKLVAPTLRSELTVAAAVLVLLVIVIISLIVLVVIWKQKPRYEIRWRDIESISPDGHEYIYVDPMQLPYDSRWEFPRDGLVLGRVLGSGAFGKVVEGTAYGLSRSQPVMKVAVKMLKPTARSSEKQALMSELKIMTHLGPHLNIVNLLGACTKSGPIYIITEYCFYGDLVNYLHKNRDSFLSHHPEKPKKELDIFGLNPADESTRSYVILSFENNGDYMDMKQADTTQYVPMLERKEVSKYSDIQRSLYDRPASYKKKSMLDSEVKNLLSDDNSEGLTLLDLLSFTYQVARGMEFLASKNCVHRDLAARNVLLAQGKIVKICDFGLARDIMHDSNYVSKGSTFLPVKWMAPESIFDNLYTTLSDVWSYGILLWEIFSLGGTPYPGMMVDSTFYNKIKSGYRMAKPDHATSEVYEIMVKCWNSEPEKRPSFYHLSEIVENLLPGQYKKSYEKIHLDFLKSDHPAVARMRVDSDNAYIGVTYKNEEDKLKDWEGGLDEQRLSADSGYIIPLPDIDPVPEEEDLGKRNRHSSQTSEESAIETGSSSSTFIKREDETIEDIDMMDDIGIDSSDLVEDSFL

Sequence	% activity (CHK2(I157T)(h)) [%]	% activity (eEF-2K(h)) [%]	% activity (PhKγ2(h)) [%]	% activity (IKKα(h)) [%]	% activity (ULK3(h)) [%]	% activity (Pim-1(h)) [%]	% activity (DRAK1(h)) [%]	% activity (Met(D1246H)(h)) [%]	% activity (PDGFRα(V561D)(h)) [%]	% activity (GSK3α(h)) [%]
FAKLAARLYRKALARQLGVAA [MMI-0300]	43	91	46	93	167	8	14	125	82	157
YARAAARQARAKALNRQLGVA [MMI-0200]	85	–	86	–	164	18	34	139	–	–
KAFAKLAARLYRKALARQLGVAA [MMI-0400]	41	43	38	87	147	7	14	68	100	164
HRRIKAWLKKIKALARQLGVAA [MMI-0500]	3	43	16	50	177	0	8	150	146	175
